Data on 4 molecules can be found in paper PMC8324060 (Science Advances, 2021).

Assay [1] concerns the target Human MLH1 C-terminal domain (amino acids 486 to 756) (human) (UniProt P40692). Nature of the assay: ITC. On the technique in general: In ITC the heat of successive injections is recorded.
Assay [2] concerns the target recombinant MutLα (MLH1-PMS2) (human, UniProt P40692;P54278). Nature of the assay: pull-down.

For orientation: Kd means the concentration at which binding is half-saturated. A low value points to higher affinity.

Human MLH1 C-terminal domain (amino acids 486 to 756) (human), sequence (P40692 486-756): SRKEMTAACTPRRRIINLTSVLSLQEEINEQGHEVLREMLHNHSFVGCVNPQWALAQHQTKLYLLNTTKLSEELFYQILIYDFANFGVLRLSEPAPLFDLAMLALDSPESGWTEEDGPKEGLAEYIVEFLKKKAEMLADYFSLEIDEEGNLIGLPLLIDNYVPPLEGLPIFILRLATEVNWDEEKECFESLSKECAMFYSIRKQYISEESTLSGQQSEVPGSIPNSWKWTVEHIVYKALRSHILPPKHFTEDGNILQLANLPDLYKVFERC
recombinant MutLα (MLH1-PMS2), sequence (P40692 whole entry, chain 1 of 2): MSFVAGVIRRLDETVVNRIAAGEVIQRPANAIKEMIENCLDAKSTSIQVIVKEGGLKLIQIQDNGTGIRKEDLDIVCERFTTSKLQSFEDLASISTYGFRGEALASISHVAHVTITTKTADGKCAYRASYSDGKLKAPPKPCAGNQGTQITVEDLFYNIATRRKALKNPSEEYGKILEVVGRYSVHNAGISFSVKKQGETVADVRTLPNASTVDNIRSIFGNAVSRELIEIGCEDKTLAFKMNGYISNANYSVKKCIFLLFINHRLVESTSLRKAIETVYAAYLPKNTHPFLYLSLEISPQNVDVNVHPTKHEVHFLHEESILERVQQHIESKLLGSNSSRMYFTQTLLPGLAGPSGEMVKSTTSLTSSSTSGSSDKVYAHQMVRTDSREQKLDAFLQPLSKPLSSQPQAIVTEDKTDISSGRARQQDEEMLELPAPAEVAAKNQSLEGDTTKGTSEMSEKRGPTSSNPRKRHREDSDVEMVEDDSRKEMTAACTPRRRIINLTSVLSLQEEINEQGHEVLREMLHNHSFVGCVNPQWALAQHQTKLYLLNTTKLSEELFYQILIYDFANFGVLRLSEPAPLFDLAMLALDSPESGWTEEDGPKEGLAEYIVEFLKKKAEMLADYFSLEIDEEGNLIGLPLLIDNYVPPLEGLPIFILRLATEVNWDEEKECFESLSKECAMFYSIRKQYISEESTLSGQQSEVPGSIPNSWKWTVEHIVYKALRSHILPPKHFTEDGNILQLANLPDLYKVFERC
recombinant MutLα (MLH1-PMS2), sequence (P54278 whole entry, chain 2 of 2): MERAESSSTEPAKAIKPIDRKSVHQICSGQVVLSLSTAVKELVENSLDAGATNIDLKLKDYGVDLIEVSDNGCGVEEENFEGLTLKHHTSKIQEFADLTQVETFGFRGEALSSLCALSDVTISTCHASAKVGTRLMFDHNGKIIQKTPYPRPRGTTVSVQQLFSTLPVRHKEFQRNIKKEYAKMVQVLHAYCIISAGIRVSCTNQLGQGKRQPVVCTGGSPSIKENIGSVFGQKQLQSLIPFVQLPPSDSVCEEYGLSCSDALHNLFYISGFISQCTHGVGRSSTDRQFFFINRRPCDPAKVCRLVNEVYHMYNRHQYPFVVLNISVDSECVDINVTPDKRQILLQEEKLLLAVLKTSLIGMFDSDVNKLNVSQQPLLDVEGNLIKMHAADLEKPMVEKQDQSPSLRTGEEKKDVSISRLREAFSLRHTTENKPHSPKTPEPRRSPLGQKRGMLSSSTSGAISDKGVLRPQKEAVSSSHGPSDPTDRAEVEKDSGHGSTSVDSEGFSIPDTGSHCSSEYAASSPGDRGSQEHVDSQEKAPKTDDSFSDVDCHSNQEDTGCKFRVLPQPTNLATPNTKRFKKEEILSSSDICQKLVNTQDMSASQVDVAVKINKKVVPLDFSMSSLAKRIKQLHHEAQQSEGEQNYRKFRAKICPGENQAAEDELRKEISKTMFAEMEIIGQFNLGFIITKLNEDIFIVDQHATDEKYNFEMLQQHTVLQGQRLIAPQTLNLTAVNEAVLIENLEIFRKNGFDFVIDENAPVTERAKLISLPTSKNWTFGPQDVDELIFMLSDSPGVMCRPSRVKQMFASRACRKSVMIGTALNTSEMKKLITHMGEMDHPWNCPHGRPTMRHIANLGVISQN

The molecule FAN1 MIM 12-mer peptide (wt) gave a Kd in assay [1] of 3200 nM.

Molecule FAN1 MIP 8-mer peptide (wt) registered a Kd in assay [1] of 2800 nM.

“FAN1-derived 42-mer peptide containing MIP and MIM (wt)” yielded a Kd in assay [1] of 70 nM.

B1: GST-FAN1 (amino acids 118 to 177) (domain or fragment)
chain: KREVKQKISPYFKSNDVVCKNQDELRNRSVKVICLGSLASKLSRKYVKAKKSIDKDEEFA
Turning to B1, the binding result in assay [2] is recorded as “binds”.
